What was measured:
[1] = target: T1, human PD-1 (human, UniProt Q15116 21-170); experiment: not stated in the sentence (BLI named in the next sentence), 25 C; 25 C; stated bound in the text
[2] = target: T2, cynomolgus monkey PD-1 (cynomolgus monkey, UniProt B0LAJ3 25-170); experiment: not stated in the sentence (BLI named in the next sentence), 25 C
T2 construct: construct not described; also called cynomologous monkey PD-1

[3] = target: T1, human PD-1; experiment: bio-layer interferometry (BLI)

T1 sequence (Q15116 21-170 limits assumed, form in doubt): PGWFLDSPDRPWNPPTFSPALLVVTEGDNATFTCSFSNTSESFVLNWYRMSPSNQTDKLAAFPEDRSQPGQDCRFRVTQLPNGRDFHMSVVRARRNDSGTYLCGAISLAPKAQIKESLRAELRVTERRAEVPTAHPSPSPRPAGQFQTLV
T2 sequence (B0LAJ3 entry or part of it limits assumed): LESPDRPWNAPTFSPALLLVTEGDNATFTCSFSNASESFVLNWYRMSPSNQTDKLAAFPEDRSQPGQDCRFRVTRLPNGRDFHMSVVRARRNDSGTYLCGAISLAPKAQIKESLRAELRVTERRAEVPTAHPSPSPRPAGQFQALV

Kd [1]: ≤ 10 pM
Kd [2]: ≤ 10 pM
Kd [3]: < 1 pM
B1: AM0001 (antibody, human IgG4 S228P, lambda, V domains shown)
VH: EVQLLESGGGLVQPGGSLRLSCPASGFTFSSYAMSWVRQAPGKGLGWVSDISGGGGTTYYADSVKGRFTISRDNSKNTLYLQMNSLRGEDTAVYYCAKSGTVVTDFDYWGQGTLVTVSS
VL: SYVLTQPPSVSVAPGQTARVTCGGNSIGSYSVHWYQQKPGQAPVLVVYDDSDRPSGIPERFSGSNSGNTAALTISRVEAGDEADYYCQVWDTSSYWVFGGGTKLTVLG
notes: Monoclonal antibody with lambda 2 light chain and hinge-stabilized IgG4 (S228P) heavy chain; also called PD1-antagonist antibody

Reference: patent publication US20210347842A1 (Eli Lilly, published 2021)
